# Results from US20180155451A1 (published 2018).
# Residue numbers refer to the chain shown, from its start. Names may count otherwise.
# T1: FcgRIIb (human, UniProt P31994 43-217)
# T1 construct: extracellular domain; also called FcγRIIb; not shown: His tag attached to the C terminus
# T1 sequence (looked up): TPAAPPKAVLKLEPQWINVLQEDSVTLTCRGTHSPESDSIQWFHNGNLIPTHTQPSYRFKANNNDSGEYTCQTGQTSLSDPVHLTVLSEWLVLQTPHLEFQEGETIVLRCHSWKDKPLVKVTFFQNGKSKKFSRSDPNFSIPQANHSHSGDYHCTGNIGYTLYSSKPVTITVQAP
# T2: FcγRIIb extracellular domain with C-terminal His tag (human, UniProt P31994 43-217)
# T2 construct: extracellular domain; Soluble receptor expressed in FreeStyle293 cells, used as analyte in Biacore; also called FcgRIIb; CD32B; not shown: His tag at the C terminus
# T2 sequence (looked up): T1 sequence (looked up)
# B1: H240-Kn061 (Y235M)/H240-Hl071/L73-k0 (antibody, human IgG1, kappa)
# heavy 1: QDQLVQSGAEVKKPGASVKVSCKASGFNIKDTYIQWVRQAPGQGLEWMGRIDPLRKQTKYREKFEGRVTITADTSTNTAYMELSSLRSEDTAVYYCVRSGREFDYWGQGTLVTVSSASTKGPSVFPLAPSSKSTSGGTAALGCLVKDYFPEPVTVSWNSGALTSGVHTFPAVLQSSGLYSLSSVVTVPSSSLGTQTYICNVNHKPSNTKVDKKVEPKSCDKTHTCPPCPAPEYMWGPSVFLFPPKPKDTLMISRTPEVTCVVVDVSDEDPEVKFNWYVDGVEVHNAKTKPREEQYNATYRVVSVLTVLHQDWLNGKEYKCKVSNKALPAPIEKTISKAKGQPREPQVCTLPPSRDELTKNQVSLWCLVKGFYPSDIAVEWESNGQPENNYKTTPPVLDSDGSFFLYSKLTVDKSRWQQGNVFSCSVMHEALHNHYTQKSLSLSP
# heavy 2: QDQLVQSGAEVKKPGASVKVSCKASGFNIKDTYIQWVRQAPGQGLEWMGRIDPLRKQTKYREKFEGRVTITADTSTNTAYMELSSLRSEDTAVYYCVRSGREFDYWGQGTLVTVSSASTKGPSVFPLAPSSKSTSGGTAALGCLVKDYFPEPVTVSWNSGALTSGVHTFPAVLQSSGLYSLSSVVTVPSSSLGTQTYICNVNHKPSNTKVDKKVEPKSCDKTHTCPPCPAPELLGGPSVFLFPPKPKDTLMISRTPEVTCVVVDVSHEDPEVKFNWYVDGVEVHNAKTKPREEQYNSTYRVVSVLTVLHQDWLNGKEYKCKVSNDALPMPIEETISKAKGQPREPQVYTLPPSRCELTKNQVSLSCAVKGFYPSDIAVEWESNGQPENNYKTTPPVLDSDGSFFLVSKLTVDKSRWQQGNVFSCSVMHEALHNHYTQKSLSLSP
# light: DIQMTQSPSSLSASVGDRVTITCRASQDIHKYIAWYQQKPGQAPRLLIQYTSTLQPGVPSRFSGSGSGTDYTFTISSLQPEDIATYYCLQYEQLRTFGGGTKVEIKRTVAAPSVFIFPPSDEQLKSGTASVVCLLNNFYPREAKVQWKVDNALQSGNSQESVTEQDSKDSTYSLSSTLTLSKADYEKHKVYACEVTHQGLSSPVTKSFNRGEC
# B2: H240-Kn061 (Y235N)/H240-Hl071/L73-k0 (antibody, human IgG1, kappa)
# heavy 1: B1 heavy 1 with M234N
# heavy 2: B1 heavy 2
# light: B1 light
# B3: H240-Kn061 (Y235W)/H240-Hl071/L73-k0 (antibody, human IgG1, kappa)
# heavy 1: B1 heavy 1 with M234W
# heavy 2: B1 heavy 2
# light: B1 light
# notes: also called H240-Kn061 Y2351N
# B4: H240-Kn061 (Y235T)/H240-Hl071/L73-k0 (antibody, human IgG1, kappa)
# heavy 1: B1 heavy 1 with M234T
# heavy 2: B1 heavy 2
# light: B1 light
# B5: GpH7-A5/GpH7-B3 variant G237_16H/GpL16-k0 (antibody, human IgG1, kappa)
# heavy 1: not shown
# heavy 2: not shown
# light: DIVMTQSPLSLPVTPGEPASISCQASESLVHSNRNTYLHWYLQKPGQSPQLLIYKVSNRFSGVPDRFSGSGSGTDFTLKISRVEAEDVGVYYCSQNTHVPPTFGQGTKVEIERTVAAPSVFIFPPSDEQLKSGTASVVCLLNNFYPREAKVQWKVDNALQSGNSQESVTEQDSKDSTYSLSSTLTLSKADYEKHKVYACEVTHQGLSSPVTKSFNRGEC
# notes: Heterodimerized anti-glypican-3 IgG1; substitution in only one H chain; also called G237H; He Ab
# B6: GpH7-A5/GpH7-B3 variant P238_11K/GpL16-k0 (antibody, human IgG1, kappa)
# heavy 1: not shown
# heavy 2: not shown
# light: B5 light
# notes: Heterodimerized anti-glypican-3 IgG1; substitution in only one H chain; also called P238K; He Ab
# B7: GpH7-A5/GpH7-B3 variant P238_14T/GpL16-k0 (antibody, human IgG1, kappa)
# heavy 1: not shown
# heavy 2: not shown
# light: B5 light
# notes: Heterodimerized anti-glypican-3 IgG1; substitution in only one H chain; also called P238T; He Ab
# B8: GpH7-A5/GpH7-B3 variant S239_15Y/GpL16-k0 (antibody, human IgG1, kappa)
# heavy 1: not shown
# heavy 2: not shown
# light: B5 light
# notes: Heterodimerized anti-glypican-3 IgG1; substitution in only one H chain; also called S239Y; He Ab
# B9: GpH7-A5/GpH7-B3 variant S239_11K/GpL16-k0 (antibody, human IgG1, kappa)
# heavy 1: not shown
# heavy 2: not shown
# light: B5 light
# notes: Heterodimerized anti-glypican-3 IgG1; substitution in only one H chain; also called S239K; He Ab
# B10: GpH7-A5/GpH7-B3 variant S239_04F/GpL16-k0 (antibody, human IgG1, kappa)
# heavy 1: not shown
# heavy 2: not shown
# light: B5 light
# notes: Heterodimerized anti-glypican-3 IgG1; substitution in only one H chain; also called S239F; He Ab
# Molecular target: T3, FcgRIIIa V (human, UniProt P08637 17-208)
# T3 construct: extracellular domain; also called FcγRIIIa V; not shown: His tag attached to the C terminus
# Assay: SPR (Biacore); KD of H240-Kn061/H240-Hl071/L73-k0 divided by KD of the variant
# Protocol: (§1) The antibodies were assessed for the binding to each FcgR. […] The resultant value was defined as relative KD, and used as an assessment indicator.
# (§2) Analysis of interaction between obj ective antibody and the FcγR was carried out using Biacore T100 (GE Healthcare), Biacore T200, Biacore A100, and Biacore 4000. HBS-EP+ (GE Healthcare) was used as the running buffer, and the measurement temperature was set to 25° C. Chips produced by immobilizing the antigen peptide by the amine coupling method to a Series S sensor Chip CM5 (GE Healthcare), chips produced by allowing preliminarily biotinylated antigen peptides to interact with and immobilize onto a Series S Sensor Chip SA (certified) (GE Healthcare), chips produced by immobilizing Protein L (ACTIGEN, BioVision) to Series S Sencor Chip CM5 (GE Healthcare), or chips produced by immobilizing Protein A/G (Thermo Scientific) to Series S Sencor Chip CM5 (GE Healthcare) were used. Antibodies of interest were captured onto these chips, and allowed to interact to each FcγR diluted with running buffer.
# T3 sequence (P08637 17-208 F176V limits assumed): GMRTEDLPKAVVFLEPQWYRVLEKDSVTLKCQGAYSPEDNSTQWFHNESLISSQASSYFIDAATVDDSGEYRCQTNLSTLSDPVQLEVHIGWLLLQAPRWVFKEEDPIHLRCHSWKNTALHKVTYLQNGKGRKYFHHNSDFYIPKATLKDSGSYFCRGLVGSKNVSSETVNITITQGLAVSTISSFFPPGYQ
row,Binder,Relative KD
1,B1,1.8
2,B2,2
3,B3,1.3
4,B4,1.1

# Molecular target: T4, FcgRIIIa F (human, UniProt P08637 17-208)
# T4 construct: extracellular domain; also called FcγRIIIa F; 3aF; not shown: His tag attached to the C terminus
# Assay: as above
# Protocol: as §1, §2
# T4 sequence (P08637 17-208): as the sequence (P08637 17-208 F176V limits assumed) above, with V160F counted along it
row,Binder,Relative KD
1,B1,1.7
2,B2,1.3
3,B3,1.1
4,B4,0.9

# Molecular target: T1, FcgRIIb
# Assay: as above
# Protocol: as §1, §2
row,Binder,Relative KD
1,B1,0.7
2,B2,0.7
3,B3,1.3
4,B4,0.6

# Molecular target: T2, FcγRIIb extracellular domain with …
# Assay: SPR (Biacore), antibody captured via antigen peptide, FcγR as analyte; binding relative to GpH7-A5/GpH7-B3/GpL16-k0 = 100
row,Binder,He/Con_2b
1,B5,55.2 % of control (GpH7-A5/GpH7-B3/GpL16-k0 = 100)
2,B6,18.1 % of control (GpH7-A5/GpH7-B3/GpL16-k0 = 100)
3,B7,50.7 % of control (GpH7-A5/GpH7-B3/GpL16-k0 = 100)
4,B8,34.9 % of control (GpH7-A5/GpH7-B3/GpL16-k0 = 100)
5,B9,24.7 % of control (GpH7-A5/GpH7-B3/GpL16-k0 = 100)
6,B10,44.1 % of control (GpH7-A5/GpH7-B3/GpL16-k0 = 100)

# Molecular target: T5, FcγRIa extracellular domain with C-terminal His tag (human, UniProt P12314 16-292)
# T5 construct: extracellular domain; Soluble receptor expressed in FreeStyle293 cells, used as analyte in Biacore; also called FcgRI; CD64; not shown: His tag at the C terminus
# Assay: as above
# T5 sequence (P12314 16-292): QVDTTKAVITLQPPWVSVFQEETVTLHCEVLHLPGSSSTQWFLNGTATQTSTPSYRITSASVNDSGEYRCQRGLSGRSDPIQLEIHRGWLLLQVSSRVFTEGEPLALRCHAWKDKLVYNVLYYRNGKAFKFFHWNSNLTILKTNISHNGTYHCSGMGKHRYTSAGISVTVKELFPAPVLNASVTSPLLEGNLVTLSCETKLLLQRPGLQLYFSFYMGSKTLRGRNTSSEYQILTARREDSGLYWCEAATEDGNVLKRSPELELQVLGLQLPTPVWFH
row,Binder,He/Con_1a
1,B5,72.6 % of control (GpH7-A5/GpH7-B3/GpL16-k0 = 100)
2,B6,77.4 % of control (GpH7-A5/GpH7-B3/GpL16-k0 = 100)
3,B7,91.1 % of control (GpH7-A5/GpH7-B3/GpL16-k0 = 100)
4,B8,89.8 % of control (GpH7-A5/GpH7-B3/GpL16-k0 = 100)
5,B9,68 % of control (GpH7-A5/GpH7-B3/GpL16-k0 = 100)
6,B10,93.8 % of control (GpH7-A5/GpH7-B3/GpL16-k0 = 100)

# Molecular target: T5, FcγRIa extracellular domain with …
# Assay: SPR (Biacore); ratio of He/Con_1a (FcγRIa) to He/Con_2b (FcγRIIb) of the same antibody
row,Binder,Ia/IIb He_1a/2b
1,B5,1.32
2,B6,4.27
3,B7,1.8
4,B8,2.57
5,B9,2.75
6,B10,2.13
